Data published in publication PMC11809415, “Structure of the F-tractin–F-actin complex” (The Journal of Cell Biology, 2025).

B1: F-tractinopt–mCherry fusion [rat] / F-actin (rabbit skeletal muscle α-actin filaments) [rabbit] (parent)
chain 1: APRRSVGELRLLFEARAASAA
chain 2: not shown

Variants of: B1
Assay: high-speed cosedimentation assay (SDS-PAGE densitometry)
Conditions: with F-actin (rabbit skeletal muscle α-actin filaments) [rabbit]; 2 µM F-tractin-mCherry; high-speed sedimentation, 120,000 g; actin 0-40 µM
chain 1 F13A gave a Kd of over 100 µM.
